Where a chain is given by its changes, count along the chain named.
What was measured:
[1] = target: T1, human chorionic gonadotropin (hCG) heterodimer (Homo sapiens, UniProt P01215;P0DN86 P01215:25-116,P0DN86:21-165); experiment: filter; TEM or TESM, 2.1 mM Mg, pH 6.5, 37 C; details: tags: Calbiochem or Vitro Diagnostics (14,000 IU/mg); chain copies: alpha/beta heterodimer (stated); label: 32P; G4 (RNase T1 protection in K+)
Experimental: (§1) Internally-labeled RNA transcripts were prepared by including [α-^32P]ATP in T7 RNA polymerase transcription reactions. Full-length transcripts were purified on 8% denaturing polyacrylamide gels to ensure size homogeneity. Gel-purified RNA was diluted to a concentration of ~5 nM in TEM buffer, heated to 80° C. then chilled on ice to facilitate secondary structure formation. RNA concentrations were kept lower than 100 pM in binding reactions. Briefly, equal amounts of RNA were incubated with varying amounts of hormone in 50 μL of TEM buffer for 10 minutes at 37° C. RNA-protein mixtures were passed through pre-wet nitrocellulose filters (0.2μ), and the filters were immediately washed with 5 mL of binding buffer. Radioactivity retained on filters was determined by liquid scintillation counting. The quantities of RNA bound to filters in the absence of protein was determined and used for background correction. The percentage of input RNA retained on each filter was plotted against the corresponding log protein concentration. The nonlinear least square method was used to obtain the dissociation constant (K_d) (Jellinek et al. (1993) Proc. Natl. Acad. Sci. U.S.A. 90:11227–11231; Irvine et al. (1991) J. Mol. Biol. 222:739–761).
(§2) By incorporating a counterselection step, SELEX allowed the isolation of hCG-specific RNA ligands (Example 5, infra).

[2] = target: T2, human thyroid stimulating hormone (hTSH) (Homo sapiens, UniProt P01215;P01222 P01215:25-116,P01222:21-132); experiment: filter; Mg, pH 6.5; details: tags: Becton Dickinson; chain copies: alpha/beta heterodimer (inferred); label: 32P; G4 (RNase T1 protection in K+)
Experimental: as §1, §2

[3] = target: T3, human luteinizing hormone (hLH) (Homo sapiens, UniProt P01215;P01229 P01215:25-116,P01229:21-141); experiment: filter; Mg, pH 6.5; details: tags: Becton Dickinson (2'-NH2 work); Scripps/Vitro Diagnostics (2'-F work); chain copies: alpha/beta heterodimer (inferred); label: 32P; G4 (RNase T1 protection in K+)
Experimental: as §1, §2

[4] = target: T4, human follicle stimulating hormone (hFSH) (Homo sapiens, UniProt P01215;P01225 P01215:25-116,P01225:19-129); experiment: filter; Mg, pH 6.5; details: tags: Becton Dickinson; chain copies: alpha/beta heterodimer (inferred); label: 32P; G4 (RNase T1 protection in K+)
Experimental: as §1, §2

[5] = target: T1, human chorionic gonadotropin (hCG) …; experiment: filter; conserved region mutated; details: tags: Calbiochem or Vitro Diagnostics (14,000 IU/mg); chain copies: alpha/beta heterodimer (stated); label: 32P
Description: (§3) PCR products generated from the RNA population isolated after six cycles of selection were cloned into pUC18 and 43 clones were sequenced (Table 13). As with the high affinity ligands selected in the first SELEX experiment in this example, 37 of the sequenced ligands are capable of assuming a stem-loop structure which places the conserved, unselected, 13-nt sequence in the "loop" structure.

[6] = target: T1, human chorionic gonadotropin (hCG) …; experiment: filter; no significant stem; details: tags: Calbiochem or Vitro Diagnostics (14,000 IU/mg); chain copies: alpha/beta heterodimer (stated); label: 32P
Description: as §3

[7] = target: T3, human luteinizing hormone (hLH); experiment: filter; details: tags: Becton Dickinson (2'-NH2 work); Scripps/Vitro Diagnostics (2'-F work); chain copies: alpha/beta heterodimer (inferred); label: 32P; G4 (RNase T1 protection in K+)
Experimental: as §1, §2

[8] = target: T1, human chorionic gonadotropin (hCG) …; experiment: filter; 5.8 +/- 2.8 nM in Table 5; details: tags: Calbiochem or Vitro Diagnostics (14,000 IU/mg); chain copies: alpha/beta heterodimer (stated); label: 32P; G4 (RNase T1 protection in K+)
[9] = target: T1, human chorionic gonadotropin (hCG) …; experiment: filter; +/- 13 nM; details: tags: Calbiochem or Vitro Diagnostics (14,000 IU/mg); chain copies: alpha/beta heterodimer (stated); label: 32P; intramolecular G4
Experimental: as §1

[10] = target: T1, human chorionic gonadotropin (hCG) …; experiment: filter; +/- 9 nM; details: tags: Calbiochem or Vitro Diagnostics (14,000 IU/mg); chain copies: alpha/beta heterodimer (stated); label: 32P; intramolecular G4
Experimental: as §1

[11] = target: T4, human follicle stimulating hormone …; experiment: filter; details: tags: Becton Dickinson; chain copies: alpha/beta heterodimer (inferred); label: 32P; possible hairpin; no G4 by RNase T1
[12] = target: T2, human thyroid stimulating hormone (hTSH); experiment: filter; not pH sensitive, pH 5.8-7.2; details: tags: Becton Dickinson; chain copies: alpha/beta heterodimer (inferred); label: 32P; possible hairpin; no G4 by RNase T1
[13] = target: T1, human chorionic gonadotropin (hCG) …; experiment: filter; SBB buffer; details: tags: Calbiochem or Vitro Diagnostics (14,000 IU/mg); chain copies: alpha/beta heterodimer (stated); label: 32P; hairpin
[14] = target: T1, human chorionic gonadotropin (hCG) …; experiment: filter; in urine; details: tags: Calbiochem or Vitro Diagnostics (14,000 IU/mg); chain copies: alpha/beta heterodimer (stated); label: 32P; hairpin
[15] = target: T1, human chorionic gonadotropin (hCG) …; experiment: filter; details: tags: Calbiochem or Vitro Diagnostics (14,000 IU/mg); chain copies: alpha/beta heterodimer (stated); label: 32P

T1 sequence (P01215 25-116, chain 1 of 2, other chains not shown): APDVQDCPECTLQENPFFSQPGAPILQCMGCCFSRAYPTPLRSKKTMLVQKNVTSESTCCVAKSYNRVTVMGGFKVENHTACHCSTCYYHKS
T2 sequence (P01215 25-116, chain 1 of 2): as the sequence (P01215 25-116, chain 1 of 2, other chains not shown) above
T2 sequence (P01222 21-132, chain 2 of 2): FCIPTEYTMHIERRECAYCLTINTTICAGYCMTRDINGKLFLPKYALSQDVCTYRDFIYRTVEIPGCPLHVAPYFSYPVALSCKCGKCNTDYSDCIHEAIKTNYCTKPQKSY
T3 sequence (P01215 25-116, chain 1 of 2): as the sequence (P01215 25-116, chain 1 of 2, other chains not shown) above
T3 sequence (P01229 21-141, chain 2 of 2): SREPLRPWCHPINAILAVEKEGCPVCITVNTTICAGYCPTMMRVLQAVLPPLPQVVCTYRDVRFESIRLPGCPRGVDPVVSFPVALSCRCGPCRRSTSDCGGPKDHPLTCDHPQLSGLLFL
T4 sequence (P01215 25-116, chain 1 of 2): as the sequence (P01215 25-116, chain 1 of 2, other chains not shown) above
T4 sequence (P01225 19-129, chain 2 of 2): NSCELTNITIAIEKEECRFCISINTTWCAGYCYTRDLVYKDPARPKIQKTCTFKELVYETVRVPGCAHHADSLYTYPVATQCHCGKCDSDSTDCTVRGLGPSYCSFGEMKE

B1: H-30 (ssRNA)
RNA: GGGAGGACGAUGCGGUACUGUAAAACAAUCUGGAGGAGGGUCUAGGGGAUGGUGGCAGACGACUCGCCCGA
modifications: 2'-NH2 all pyrimidines
Work on B1 yielded a Kd [1] of 20 nM, a Kd [2] of about 1600 nM and a Kd [3] of 51 nM. The Kd [4] was about 1700 nM.

B2: 2nd generation ligand 84 (ssRNA)
RNA: GGGAGGACGAUGCGGUUGGUUAUCCAUGUUGAACGUUCCUUCAUGUCGAAUAUGCAGACGACUCGCCCGA
modifications: 2'-F all pyrimidines
For B2, the binding signal [5] was 0.24 % bound at 100 nM.

B3: 2nd generation ligand 95 (ssRNA)
RNA: GGGAGGACGAUGCGGGUUUUCCUACUAGUUGAAUGAUCCUUCUAGUUAGAUGCCAGACGACUCGCCCGA
modifications: 2'-F all pyrimidines
B3 showed a binding signal [5] of 1.57 % bound at 100 nM.

B4: 2nd generation ligand 77 (ssRNA)
RNA: GGGAGGACGAUGCGGCAGUGUCAACAUCUUGAACGAUCCUUUUUUUCAGCGCGUCAGACGACUCGCCCGA
modifications: 2'-F all pyrimidines
B4 showed a binding signal [6] of 0.42 % bound at 100 nM.

B5: 2nd generation ligand 82 (ssRNA)
RNA: GGGAGGACGAUGCGGUAACAGUCGAUUCUUGAACGAUCCUUUCCACUUCAACCGCAGACGACUCGCCCGA
modifications: 2'-F all pyrimidines
Work on B5 yielded a binding signal [6] of 0 % bound at 100 nM.

B6: H-25 (ssRNA)
RNA: GGGAGGACGAUGCGGAAAGGAGGAGGCUGGGUGCGUCAAGAGUUCUCCCGAGCGCCAGACGACUCGCCCGA
modifications: 2'-NH2 all pyrimidines
In the case of B6, the Kd [7] is reported as 17.5 nM and the Kd [8] is reported as 6 nM.

B7: delta17 (ssRNA)
RNA: GGAGGACGAUGCGGAGGGAACGCGGAGGGGUG
modifications: 2'-NH2 all pyrimidines
Work on B7 yielded a Kd [9] of 25 nM.

B8: delta25 (ssRNA)
RNA: GGAGGACGAUGCGGAAAGGAGGAGGCUGGGUGCGUC
modifications: 2'-NH2 all pyrimidines
B8 gave a Kd [10] of 24 nM.

B9: T-15 (ssRNA)
RNA: GGGAGGACGAUGCGGAUGUUGGCAGCAGGGUCCGACGGCGUAACCUUGCCAGCUGCAGACGACUCGCCCGA
modifications: 2'-NH2 all pyrimidines
For B9, the Kd [11] was about 200 nM and the Kd [12] was 14 nM.

B10: hCG ligand 9TR1 (ssRNA)
RNA: GGGAGUCUCGUUGGUCGUUGAACGAUCCUUCGACAGGAGGCUCA
modifications: 2'-F all pyrimidines
Work on B10 yielded a Kd [13] of 200 nM and a Kd [14] of 100 nM.

B11: Class 1 ligand 16 (ssRNA)
RNA: GGGAGACAAGAAUAAACGCUCAAUUCGGAAGAUCCCAGAGUCUCGUUGGUCGUUGAACGAUCCUUCGACAGGAGGCUCACAACAGGC
modifications: 2'-F all pyrimidines
Work on B11 yielded a binding signal [15] of 5.41 % bound at 100 nM.

B12: Class 1 ligand 40 (ssRNA)
RNA: B11 RNA with G27U
modifications: 2'-F all pyrimidines
In the case of B12, the binding signal [15] is reported as 2.2 % bound at 100 nM.

B13: Class 1 ligand 26 (ssRNA)
RNA: B11 RNA with C26U, A37U
modifications: 2'-F all pyrimidines
With B13 the binding signal [15] was 3.34 % bound at 100 nM.

B14: Class 1 ligand 18 (first SELEX) (ssRNA)
RNA: B11 RNA with C26U, G27C, A37U
modifications: 2'-F all pyrimidines
B14 showed a binding signal [15] of 2.69 % bound at 100 nM.

B15: Class 1 ligand 56 (ssRNA)
RNA: GGGAGACAAGAAUAAACGCUCAAUUUGGAAGAUCCCUGGAGUCUCGUUGGUCGUUGAACGAUCCUUCGACAGGAGGCUCACAACAGGC
modifications: 2'-F all pyrimidines
B15 gave a binding signal [15] of 3.85 % bound at 100 nM.

B16: Class 1 ligand 37 (ssRNA)
RNA: GGGAGACAAGAAUAAACGCUCAAUUUGGAAGGUCCUGAGUCUCGUUGGUCGUUGAACGAUCCUUCGACAGGAGGCUCACAACAGGC
modifications: 2'-F all pyrimidines
In the case of B16, the binding signal [15] is reported as 1.89 % bound at 100 nM.

B17: Class 1 ligand 5 (ssRNA)
RNA: B11 RNA with U24A, C26U, A30G, G31U, A37U, C44U, A60G
modifications: 2'-F all pyrimidines
B17 was tested, and the binding signal [15] was 1.26 % bound at 100 nM.

B18: Class 1 ligand 30 (ssRNA)
RNA: GGGAGACAAGAAUAAACGCUCAAAAGUCACUCGCAGCGCUUCCUGGUUCGAUUGAACGAUCCUUUCGACAGGAGGCUCACAACAGGC
modifications: 2'-F all pyrimidines
Binder B18 has a binding signal [15] of 0.58 % bound at 100 nM.

B19: Class 1 ligand 8 (ssRNA)
RNA: GGGAGACAAGAAUAAACGCUCAAGUGCCCUGUUAUCUUCCUCGAUCGAUUGAACGAUCCUUUCGACAGGAGGCUCACAACAGGC
modifications: 2'-F all pyrimidines
Binder B19 has a binding signal [15] of 0.98 % bound at 100 nM.

B20: Class 1 ligand 43 (ssRNA)
RNA: GGGAGACAAGAAUAAACGCUCAACCAGAUAAUCCCAAUGAGUCCCUCGAGAUUGAACGAUCCUUUCGACAGGAGGCUCACAACAGGC
modifications: 2'-F all pyrimidines
B20 gave a binding signal [15] of 0.93 % bound at 100 nM.

B21: Class 1 ligand 20 (ssRNA)
RNA: GGGAGACAAGAAUAAACGCUCAAGUCAUAAGCCUAACGGUCCCUAGUCAAUUGAACGAUCCUUCGACAGGAGGCUCACAACAGGC
modifications: 2'-F all pyrimidines
For B21, the binding signal [15] was 0.13 % bound at 100 nM.

B22: Class 1 ligand 28 (ssRNA)
RNA: GGGAGACAAGAAUAAACGCUCAAACAGCGAUUGAACGAUCCUUUCAGCUGAUGGGUACGGGAUUCGACAGGAGGCUCACAACAGGC
modifications: 2'-F all pyrimidines
In the case of B22, the binding signal [15] is reported as 0.58 % bound at 100 nM.

B23: 2nd generation ligand 59 (ssRNA)
RNA: GGGAGGACGAUGCGGUAACUCUUAAUUCUUGAACAAUCCUUGAAUUUAGCGGACCAGACGACUCGCCCGA
modifications: 2'-F all pyrimidines
In the case of B23, the binding signal [5] is reported as 1.88 % bound at 100 nM.

B24: 2nd generation ligand 8 (ssRNA)
RNA: GGGAGGACGAUGCGGUUCGAUUCCAAGUUGAACGAUCCUCCUUUUGAUUAGACCAGACGACUCGCCCGA
modifications: 2'-F all pyrimidines
For B24, the binding signal [5] was 0.73 % bound at 100 nM.

B25: 2nd generation ligand 7 (ssRNA)
RNA: GGGAGGACGAUGCGGAUGAGCUUGAUAAUGGAACGAUCCUUUUAACGGUUCUUCCAGACGACUCGCCCGA
modifications: 2'-F all pyrimidines
In the case of B25, the binding signal [5] is reported as 0 % bound at 100 nM.

B26: 2nd generation ligand 37 (ssRNA)
RNA: GGGAGGACGAUGCGGAAUUCCCCCAAGAUUGAACGGUCCUUUCUCGCAGAUGUUCAGACGACUCGCCCGA
modifications: 2'-F all pyrimidines
Work on B26 yielded a binding signal [5] of 0 % bound at 100 nM.

B27: 2nd generation ligand 76 (ssRNA)
RNA: GGGAGGACGAUGCGGACCGACUAAAUGAUUGAACGAUCCUUAUUGUCUCUAUCACAGACGACUCGCCCGA
modifications: 2'-F all pyrimidines
B27 showed a binding signal [6] of 0.2 % bound at 100 nM.

Source: US5849890, “High affinity oligonucleotide ligands to chorionic gonadotropin hormone and related glycoprotein hormones” (NeXstar Pharmaceuticals, Inc.)
